Data from publication doi:10.1101/688531.
Several values for one entry are separate records, joined by “and”; a condition that tells them apart may be missing. Equal entries are not always repeated.

Biological target: synthetic horse SLN (horse)
Assay: SDS-PAGE with immunoblot

- stoichiometry N: 2 and 3
Substance: synthetic horse SLN (peptide)
